The target in this test is T1, FLT3 on Nalm16 cells (human, UniProt P36888 27-993).
T1 construct: whole, on cells; Also used for FLT3 on primary leukemic cells of patients in the functional rows; also called NALM16 (FLT3+); FLT3 on leukemic cells
T1 sequence (looked up): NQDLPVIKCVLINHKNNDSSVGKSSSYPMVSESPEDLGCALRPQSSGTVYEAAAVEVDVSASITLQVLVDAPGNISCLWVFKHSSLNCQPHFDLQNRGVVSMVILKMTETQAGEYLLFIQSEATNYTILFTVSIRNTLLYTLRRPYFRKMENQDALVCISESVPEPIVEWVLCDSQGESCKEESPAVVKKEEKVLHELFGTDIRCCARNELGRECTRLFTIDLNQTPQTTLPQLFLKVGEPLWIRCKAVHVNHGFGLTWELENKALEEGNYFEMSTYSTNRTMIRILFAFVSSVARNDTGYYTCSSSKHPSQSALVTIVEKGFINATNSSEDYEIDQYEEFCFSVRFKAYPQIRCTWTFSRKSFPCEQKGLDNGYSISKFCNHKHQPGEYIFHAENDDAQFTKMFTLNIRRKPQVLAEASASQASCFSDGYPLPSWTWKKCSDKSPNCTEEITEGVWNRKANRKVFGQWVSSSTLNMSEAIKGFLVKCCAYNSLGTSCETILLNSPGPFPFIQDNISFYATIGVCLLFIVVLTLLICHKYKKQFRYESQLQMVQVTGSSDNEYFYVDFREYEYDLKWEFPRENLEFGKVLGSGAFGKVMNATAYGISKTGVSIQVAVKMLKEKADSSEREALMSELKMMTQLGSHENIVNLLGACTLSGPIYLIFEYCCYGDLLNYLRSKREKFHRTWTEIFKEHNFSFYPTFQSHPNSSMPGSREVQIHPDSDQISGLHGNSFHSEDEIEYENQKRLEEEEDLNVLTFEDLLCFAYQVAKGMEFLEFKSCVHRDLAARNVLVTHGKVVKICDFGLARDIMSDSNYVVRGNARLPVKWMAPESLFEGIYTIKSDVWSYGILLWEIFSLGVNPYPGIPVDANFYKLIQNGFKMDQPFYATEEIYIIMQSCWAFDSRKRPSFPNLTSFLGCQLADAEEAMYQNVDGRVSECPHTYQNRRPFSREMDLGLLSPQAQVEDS
Put plainly: flow cytometry on NALM16 (FLT3+) cells, PE-conjugated anti human Fcγ secondary antibody. Here is the method: In addition, antibody binding affinity was also tested using binding of the antibody to its target(s) as expressed on cells. Analyzed is the binding of CC-2 variants to Nalm16 cells expressing FLT3 (FIG. 4) or Jurkat cells expressing CD3 (FIG. 6). Variants V1 to V9 (with V6 being V6-V6) were produced after transient transfection of CHO cells using the insert sequences listed above. The antibodies were purified by protein A affinity-and size exclusion-chromatography. […] To measure antibody binding to FLT3 and CD3 NALM16 (FLT3+) and Jurkat (CD3+) cells were incubated with the respective variants for 30 min, washed, stained with a goat anti human Fcγ-specific and PE-conjugated secondary antibody (Jackson Immuno Research), washed again and analyzed by flow cytometry (FACSCalibur, BD Biosciences).
In general terms: A flow cytometer gives signals particle by particle.

1 molecule from US20250197510A1 (published 2025) can be followed below.

B1: V6-V6 (bispecific antibody, human IgG1, kappa)
heavy: QVQLQQPGAELVKPGASLKLSCKSSGYTFTSYWMHWVRQRPGHGLEWIGEIDPSDSYKDYNQKFKDKATLTVDRSSNTAYMHLSSLTSDDSAVYYCARAITTTPFDFWGQGTTLTVSSASTKGPSVFPLAPSSKSTSGGTAALGCLVKDYFPEPVTVSWNSGALTSGVHTFPAVLQSSGLYSLSSVVTVPSSSLGTQTYICNVNHKPSNTKVDKKVEPKSCDKTHTCPPCPAPPVAGPSVFLFPPKPKDTLMISRTPEVTCVVVGVSHEDPEVKFNWYVDGVEVHNAKTKPREEQYNSTYRVVSVLTVLHQDWLNGKEYKCKVSNKQLPSPIEKTISKAKGQPREPQVYTLPPSRDELTKNQVSLTCLVKGFYPSDIAVEWESNGQPENNYKTTPPVLDSDGSFFLYSKLTVDKSRWQQGNVFSCSVMHEALHNHYTQKSLSLSPGKSGDIQMTQSPSSLSASVGDRVTITCRASQDIRNYLNWYQQKPGKAPKLLIYYTSRLESGVPSRFSGSGSGTDYTLTISSLQPEDFATYYCQQGNTLPWTFGQGTKVEIKGGGGSGGGGSGGGGSEVQLVESGGGLVQPGGSLRLSCAASGYSFTGYTMNWVRQAPGKGLEWVALINPYKGVSTYNQKFKDRFTISVDKSKNTAYLQMNSLRAEDTAVYYCARSGYYGDSDWYFDVWGQGTLVTVSS
light: DIVLTQSPATLSVTPGDSVSLSCRASQSISNNLHWYQQKSHESPRLLIKYASQSISGIPSRFSGSGSGTDFTLSINSVETEDFGVYFCQQSNTWPYTFGGGTKLEIKRTVAAPSVFIFPPSDEQLKSGTASVVCLLNNFYPREAKVQWKVDNALQSGNSQESVTEQDSKDSTYSLSSTLTLSKADYEKHKVYACEVTHQGLSSPVTKSFNRGEC
notes: also called CC-2; FLT3 (4G8) x CD3 (humanized hUCHT1) bispecific IgGsc
The EC50 is the concentration needed to bring the measured effect to its halfway point. Read a low EC50 as a more potent agent. B1: the EC50 was roughly 1 nM.
